Experimental data as given in patent US11549134B2, “Modified amadoriase and method for producing the same, agent for improving surfactant resistance of amadoriase and composition for measuring HbA1c using the same” (Kikkoman Corporation, priority 2013, dated 2023).

Key:
Assay type in all cases: biochemical
[1] = Surfactant resistance (residual activity) of CFP-D multiple variants, 0.04% CTAC; conditions: 30°C, 5 minutes, crude enzyme
Method: An amadoriase crude enzyme solution or an amadoriase purified sample is diluted with a 30 mM MES/21 mM Tris buffer solution (pH6.5) so as to have a concentration of about 1.0 U/ml. To this, CTAC (for example, manufactured by Tokyo Kasei Kogyo Co., Ltd.) is added so as to obtain a final concentration 0.01% (w/v) or 0.04%. The resultant mixture is heated at 30° C. for 5 minutes. After heating, the mixture is diluted double with a 10 mM phosphate buffer (pH7.0) containing 0.15% BSA to prepare a sample. The enzyme activities of the sample before and after a surfactant treatment are measured by the method described in Section B above. The ratio of activity of the sample after the surfactant treatment relative to the activity of the sample before the surfactant treatment (regarded as 100), i.e., the residual activity (%), is obtained. In this manner, surfactant resistance is evaluated. […]

[2] = Surfactant resistance (residual activity), 0.04% TTAC; conditions: 20 mM potassium phosphate buffer (pH 7.0)
Method: (§1) An amadoriase crude enzyme solution or an amadoriase purified sample is diluted with a 30 mM MES/21 mM Tris buffer solution (pH6.5) so as to have a concentration of about 1.0 U/ml. To this, CTAC (for example, manufactured by Tokyo Kasei Kogyo Co., Ltd.) is added so as to obtain a final concentration 0.01% (w/v) or 0.04%. The resultant mixture is heated at 30° C. for 5 minutes. After heating, the mixture is diluted double with a 10 mM phosphate buffer (pH7.0) containing 0.15% BSA to prepare a sample. The enzyme activities of the sample before and after a surfactant treatment are measured by the method described in Section B above. […] In this manner, surfactant resistance is evaluated.
Tetradecyltrimethylammonium chloride (hereinafter indicated with “TTAC”) was used in place of the surfactant CTAC used in Example 2 to evaluate the stability of CFP-D. The surfactant resistance of various modified amadoriases was evaluated in accordance with a measurement method for surfactant resistance according to Example 1, although under surfactant treatment conditions in which the amadoriases were each diluted in a 20 mM potassium phosphate buffer solution (pH 7.0) and mixed with 0.04% TTAC. In this respect, it was confirmed that when the warmed sample was again measured for activity 30 minutes after 2-fold dilution in a BSA solution, there was no change in the activity value.

[3] = Surfactant resistance (residual activity), 0.04% SDS; conditions: 30 mM MES/21 mM Tris buffer (pH 6.5)
Method: as §1
The stability of CFP-D was evaluated using sodium dodecyl sulfate (hereinafter indicated with “SDS”) in place of the surfactant CTAC used in Example 2. The surfactant resistance of the modified amadoriases was evaluated in accordance with a measurement method for surfactant resistance according to Example 1 although under surfactant treatment conditions in which the amadoriases were each diluted in a 30 mM MES/21 mM Tris buffer solution (pH 6.5) and mixed with 0.04% SDS. In this respect, it was confirmed that when the warmed sample was again measured for activity 30 minutes after 2-fold dilution in a BSA solution, there was no change in the activity value.

[4] = Surfactant resistance (residual activity) of CcFX variants, 0.01% CTAC; conditions: 30°C, 5 minutes, 20 mM potassium phosphate buffer (pH 7.0), crude enzyme, Table 1-2
Method: as §1
Using a recombinant plasmid containing CcFX gene (SEQ ID NO: 55) as a starting plasmid, various variants were produced as in the procedures described in (1) and (2) above in Escherichia coli strain JM109 (pKK223-3-CcFX) having the plasmid. […] Subsequently, the surfactant resistance of the modified amadoriases was evaluated according to the measurement method for surfactant resistance described in (4) although under surfactant treatment conditions in which the amadoriases were each diluted in a 20 mM potassium phosphate buffer solution (pH 7.0) and mixed with 0.01% CTAC. […]

Molecule	Residual Activity(%) [1] [%]	Residual Activity(%) [2] [%]	Residual Activity(%) [3] [%]	Residual Activity(%) [4] [%]
CFP-D: amadoriase derived from the genus Coniochaeta with E98A, F43Y, G184D, deletion of 3 carboxy-terminal amino acid residues; SEQ ID NO: 3 (protein, listed as Coniochaeta sp., 3 C-terminal residues deleted) MTSNRADTRVIVVGGGGTIGSSTALHLVRSGYAPANITVLDTYEIPSAQSAGHDLNKIMGIRLRNKVDLQMSLEARQMWKEDELFQPFFHNTGRMDCAHTPEGIEDLKKQYQALHDAGAGLEKTHAWLDNEDEILSKMPLLQRDQIQGWKAIWSQDGGWLAAAKAINAIGQFLKERGVKFGFGDAGSFKQPLFDDEGTTCIGVETADGTKYYADKVVLAAGAWSPTLVDLEDQCCSKAWVYAHIQLTPEEAAEYKGVPVVYNGEFGFFFEPDEFGVIKVCDEFPGFSRFKEHQPYGAPSPKRISVPRSHAKHPTDTYPDASEVSIKKAIATFLPRFQDKELFNRALCWCTDTADAALLMCEHPKWKNFILATGDSGHSFKILPNVGKYVVELIEGRLPEEMAYQWRWRPGGDALKSRRAAPPKDLADMPGWKHD	12.7	29.2	11.3	
CcFX: ketoamine oxidase derived from Curvularia clavata, SEQ ID NO: 37 (protein, listed as Curvularia clavata) MAPSRANTSVIVVGGGGTIGSSTALHLVRSGYTPSNITVLDTYPIPSAQSAGNDLNKIMGIRLRNKVDLQLSLEARQMWREDDLFKEYFHNTGRLDCAHGEEGLADLRQAYQALLDANAGLEETTEWLDSEDEILKKMPLLDREQIKGWKAVYSQDGGWLAAAKAINAIGEYLRAQGVKFGFGGAGSFKQPLLAEGVCIGVETVDGTRYYADKVVLAAGAWSPVLVDLEDQCVSKAWVYAHIQLTPEEAAEYKNVPVVYNGDVGFFFEPDEHGVIKVCDEFPGFTRFKQHQPYGAKAPKRISVPRSAAKHPTDTYPDASEKSIRKAIATFLPKFTEKELFNRHLCWCTDTADAALLMCEHPEWKNFVLATGDSGHTFKLLPNIGKHVVELLEGTLAEDLAHAWRWRPGTGDALKSRRAAPAKDLADMPGWKHDDVVKSKL				27.4
